{"source": "paper doi:10.1101/2025.11.17.688760", "tested_on": "P68135", "assay": "TIRF microscopy of single actin filaments", "details": "other: TIRF microscopy of single actin filaments (depolymerization)"}
{"substance": "alpha skeletal actin from rabbit muscle", "values": [{"measurement": "barbed end depolymerization rate (effective off-rate of ADP and ADP.Pi subunits)", "result": "3.4 ± 0.7 sub/s (mean ± SD)"}]}
